Test results from paper PMC12012969.

What was measured:
[1] = target: KslB, bacterial Pictet–Spenglerase from Kitasatospora setae (Kitasatospora setae); experiment: SEC
[2] = target: KslB, bacterial Pictet–Spenglerase from Kitasatospora setae (Kitasatospora setae); experiment: crystal structure

“KslB, bacterial Pictet–Spenglerase from Kitasatospora setae (enzyme)” was tested, and the stoichiometry N [1] was 2 and the stoichiometry N [2] was 2.
